Laboratory results: article PMC12732646, “Peroxisome Proliferator-Activated Receptor α/δ/γ Activation Profile by Endogenous Long-Chain Fatty Acids” (International Journal of Molecular Sciences, 2025)
Ends that are not written are not given here.

B1: TRAP220 coactivator peptide, AAs 631–655 (peptide)
peptide: PVSSMAGNTKNHPMLMNLLKDNPAQ
modifications: also: biotin-labeled, position not given here
notes: Thyroid hormone receptor-associated protein 220, amino acids 631-655, holds an LXXLL motif (LMNLL); also called thyroid hormone receptor-associated protein 220 peptide; source: synthetic peptide (GenScript)

Assays:
Details in all cases: both partners purified
[1] = target: T1, Human PPARα-LBD (amino acids 200–468) (human, UniProt Q07869 200-468); experiment: FRET or BRET; same cell-free TR-FRET coactivator recruitment; with approved drug (pemafibrate for PPARα, seladelpar for PPARδ, pioglitazone for PPARγ), concentration series; response as percent of the maximal response with 1 µM GW full agonist
T1 construct: source: delipidized with ethanol
T1 sequence (looked up): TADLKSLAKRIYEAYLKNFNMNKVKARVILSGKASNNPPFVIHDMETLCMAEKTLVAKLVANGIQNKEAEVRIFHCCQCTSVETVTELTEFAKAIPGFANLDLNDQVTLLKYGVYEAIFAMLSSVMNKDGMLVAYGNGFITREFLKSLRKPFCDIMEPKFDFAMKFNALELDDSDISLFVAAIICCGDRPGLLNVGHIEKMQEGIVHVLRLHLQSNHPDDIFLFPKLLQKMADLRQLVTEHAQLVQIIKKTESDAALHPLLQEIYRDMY

[2] = target: T2, Human PPARδ-LBD (amino acids 170–441) (human, UniProt Q03181 170-441); experiment: as above
T2 sequence (looked up): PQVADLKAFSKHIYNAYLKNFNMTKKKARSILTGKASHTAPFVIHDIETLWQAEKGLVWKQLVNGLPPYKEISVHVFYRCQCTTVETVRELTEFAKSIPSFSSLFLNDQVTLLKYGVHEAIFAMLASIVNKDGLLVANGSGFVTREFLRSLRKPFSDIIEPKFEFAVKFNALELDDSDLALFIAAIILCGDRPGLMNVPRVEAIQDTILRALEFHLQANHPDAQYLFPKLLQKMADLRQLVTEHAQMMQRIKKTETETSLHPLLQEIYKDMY

[3] = target: T3, Human PPARγ-LBD (isoform 1; amino acids 203–477) (human, UniProt P37231-2 203-477); experiment: FRET or BRET; cell-free TR-FRET coactivator recruitment; 6×His-LBD (9.5 µL of 400 nM) with Eu-W1024 anti-6×His antibody, biotin-labeled peptide (5 µL of 1 µM) with ULight-streptavidin; Buffer A (20 mM HEPES-NaOH pH 7.4, 150 mM NaCl, 1 mM EDTA, 0.005% Tween 20, 0.2% FA-free BSA); room temperature, 2 h; with synthetic full agonist (GW7647 for PPARα, GW501516 for PPARδ, GW1929 for PPARγ), concentration series; 665/620 …
T3 construct: numbers count on: isoform 1
T3 sequence (looked up): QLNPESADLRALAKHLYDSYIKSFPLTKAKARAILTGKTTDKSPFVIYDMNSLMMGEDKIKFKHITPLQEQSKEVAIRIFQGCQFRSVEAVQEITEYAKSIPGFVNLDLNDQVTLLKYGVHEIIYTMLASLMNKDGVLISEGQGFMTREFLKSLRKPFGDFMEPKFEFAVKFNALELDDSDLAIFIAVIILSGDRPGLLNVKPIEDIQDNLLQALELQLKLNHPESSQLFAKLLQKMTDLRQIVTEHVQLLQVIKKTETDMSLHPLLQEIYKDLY

[4] = target: T3, Human PPARγ-LBD (isoform 1; amino acids …); experiment: FRET or BRET; same cell-free TR-FRET coactivator recruitment; with approved drug (pemafibrate for PPARα, seladelpar for PPARδ, pioglitazone for PPARγ), concentration series; response as percent of the maximal response with 1 µM GW full agonist

| Binder | binding result [1] | binding result [2] | binding result [3] | binding result [4] |
| --- | --- | --- | --- | --- |
| B1 | binds | binds | binds | – |
| SGNLVPDAASKHKQLSELLRGGSGS (also: biotin-labeled, position not given here, source: synthetic peptide (GenScript)) [CBP coactivator peptide, AAs 56–80] | binds | binds | – | binds |
| CPSSHSSLTERHKILHRLLQEGSPS (also: biotin-labeled, position not given here, source: synthetic peptide (GenScript)) [SRC1 coactivator peptide, AAs 676–700] | binds | binds | – | – |
| EAEEPSLLKKLLLAPANTQ (also: biotin-labeled, position not given here, source: synthetic peptide (GenScript)) [PGC1α coactivator peptide, AAs 137–155] | – | binds | – | – |
